# Patent US20210388087A1 (Chugai, published 2021)
# Residue numbers refer to the chain shown, from its start. Names may count otherwise.
# T1: Human CD3eg linker (human)
# T1 construct: Single chain: epsilon and gamma subunits of human CD3 joined by a 29-mer linker, Flag-tag at the C-terminus; also called recombinant human CD3
# T1 chain: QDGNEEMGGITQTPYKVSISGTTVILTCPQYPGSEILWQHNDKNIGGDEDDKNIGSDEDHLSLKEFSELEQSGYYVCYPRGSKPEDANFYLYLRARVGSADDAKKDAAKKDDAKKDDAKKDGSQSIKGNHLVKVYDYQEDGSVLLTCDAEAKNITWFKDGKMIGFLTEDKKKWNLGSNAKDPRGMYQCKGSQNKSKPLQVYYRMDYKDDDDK
# B1: H183/L072 VH G26A (antibody, name in Kabat numbering, V domains shown)
# VH: QVQLVESGGGLVQPGRSLRLSCAASAFTFSNAWMHWVRQAPGKGLEWVAQIKDKGNAYAAYYAPSVKGRFTISRDDSKNSIYLQMNSLKTEDTAVYYCHYVHYASASTVLPAFGVDAWGQGTTVTVSS
# VL: DIVMTQSPLSLPVTPGEPASISCQASQELVHMNRNTYLHWYQQKPGQAPRLLIYKVSNRFPGVPDRFSGSGSGTDFTLKISRVEAEDVGVYYCAQGTSVPFTFGQGTKLEIK
# B2: H183/L072 VH A56E (antibody, name in Kabat numbering, V domains shown)
# VH: B1 VH with A26G, A59E
# VL: B1 VL
# B3: H183/L072 VH A54Q (antibody, name in Kabat numbering, V domains shown)
# VH: B1 VH with A26G, A57Q
# VL: B1 VL
# B4: H183/L072 VH A56G (antibody, name in Kabat numbering, V domains shown)
# VH: B1 VH with A26G, A59G
# VL: B1 VL
# B5: H183/L072 VH A54F (antibody, name in Kabat numbering, V domains shown)
# VH: B1 VH with A26G, A57F
# VL: B1 VL
# B6: H183/L072 VH A54L (antibody, name in Kabat numbering, V domains shown)
# VH: B1 VH with A26G, A57L
# VL: B1 VL
# B7: H183/L072 VH A54I (antibody, name in Kabat numbering, V domains shown)
# VH: B1 VH with A26G, A57I
# VL: B1 VL
# B8: H183/L072 VH A54W (antibody, name in Kabat numbering, V domains shown)
# VH: B1 VH with A26G, A57W
# VL: B1 VL
# B9: H183/L072 VH A54M (antibody, name in Kabat numbering, V domains shown)
# VH: B1 VH with A26G, A57M
# VL: B1 VL
# B10: H183/L072 VH A32Q (antibody, name in Kabat numbering, V domains shown)
# VH: B1 VH with A26G, A32Q
# VL: B1 VL
# B11: H183/L072 VH A32S (antibody, name in Kabat numbering, V domains shown)
# VH: B1 VH with A26G, A32S
# VL: B1 VL
# B12: H183/L072 VH A54D (antibody, name in Kabat numbering, V domains shown)
# VH: B1 VH with A26G, A57D
# VL: B1 VL
# B13: H183/L072 VH A32H (antibody, name in Kabat numbering, V domains shown)
# VH: B1 VH with A26G, A32H
# VL: B1 VL
# B14: H183/L072 VH A54R (antibody, name in Kabat numbering, V domains shown)
# VH: B1 VH with A26G, A57R
# VL: B1 VL
# B15: H183/L072 VH A54P (antibody, name in Kabat numbering, V domains shown)
# VH: B1 VH with A26G, A57P
# VL: B1 VL
# B16: H183/L072 VH A56D (antibody, name in Kabat numbering, V domains shown)
# VH: B1 VH with A26G, A59D
# VL: B1 VL
# B17: H183/L072 VH A54Y (antibody, name in Kabat numbering, V domains shown)
# VH: B1 VH with A26G, A57Y
# VL: B1 VL
# B18: H183/L072 VH A32Y (antibody, name in Kabat numbering, V domains shown)
# VH: B1 VH with A26G, A32Y
# VL: B1 VL
# B19: H183/L072 VH A54E (antibody, name in Kabat numbering, V domains shown)
# VH: B1 VH with A26G, A57E
# VL: B1 VL
# B20: H183/L072 VH A32N (antibody, name in Kabat numbering, V domains shown)
# VH: B1 VH with A26G, A32N
# VL: B1 VL
# B21: H183/L072 VH A54V (antibody, name in Kabat numbering, V domains shown)
# VH: B1 VH with A26G, A57V
# VL: B1 VL
# B22: H183/L072 VH A54S (antibody, name in Kabat numbering, V domains shown)
# VH: B1 VH with A26G, A57S
# VL: B1 VL
# B23: H183/L072 VH A32G (antibody, name in Kabat numbering, V domains shown)
# VH: B1 VH with A26G, A32G
# VL: B1 VL
# B24: H183/L072 VH A32T (antibody, name in Kabat numbering, V domains shown)
# VH: B1 VH with A26G, A32T
# VL: B1 VL
# B25: H183/L072 VH A32W (antibody, name in Kabat numbering, V domains shown)
# VH: B1 VH with A26G, A32W
# VL: B1 VL
# B26: H183/L072 VH A32R (antibody, name in Kabat numbering, V domains shown)
# VH: B1 VH with A26G, A32R
# VL: B1 VL
# B27: H183/L072 VH A32M (antibody, name in Kabat numbering, V domains shown)
# VH: B1 VH with A26G, A32M
# VL: B1 VL
# B28: H183/L072 VH A54G (antibody, name in Kabat numbering, V domains shown)
# VH: B1 VH with A26G, A57G
# VL: B1 VL
# B29: H183/L072 VH A54T (antibody, name in Kabat numbering, V domains shown)
# VH: B1 VH with A26G, A57T
# VL: B1 VL
# B30: H183/L072 VH A32K (antibody, name in Kabat numbering, V domains shown)
# VH: B1 VH with A26G, A32K
# VL: B1 VL
# B31: H183/L072 VH A32I (antibody, name in Kabat numbering, V domains shown)
# VH: B1 VH with A26G, A32I
# VL: B1 VL
# B32: H183/L072 VH A54H (antibody, name in Kabat numbering, V domains shown)
# VH: B1 VH with A26G, A57H
# VL: B1 VL
# B33: H183/L072 VH A32V (antibody, name in Kabat numbering, V domains shown)
# VH: B1 VH with A26G, A32V
# VL: B1 VL
# B34: H183/L072 VH A56I (antibody, name in Kabat numbering, V domains shown)
# VH: B1 VH with A26G, A59I
# VL: B1 VL
# B35: H183/L072 VH A54N (antibody, name in Kabat numbering, V domains shown)
# VH: B1 VH with A26G, A57N
# VL: B1 VL
# B36: H183/L072 VH A56H (antibody, name in Kabat numbering, V domains shown)
# VH: B1 VH with A26G, A59H
# VL: B1 VL
# B37: H183/L072 VH A56L (antibody, name in Kabat numbering, V domains shown)
# VH: B1 VH with A26G, A59L
# VL: B1 VL
# B38: H183/L072 VH A54K (antibody, name in Kabat numbering, V domains shown)
# VH: B1 VH with A26G, A57K
# VL: B1 VL
# B39: H183/L072 VH A32P (antibody, name in Kabat numbering, V domains shown)
# VH: B1 VH with A26G, A32P
# VL: B1 VL
# B40: H183/L072 VH A32L (antibody, name in Kabat numbering, V domains shown)
# VH: B1 VH with A26G, A32L
# VL: B1 VL
# B41: H183/L072 VH A32E (antibody, name in Kabat numbering, V domains shown)
# VH: B1 VH with A26G, A32E
# VL: B1 VL
# B42: H183/L072 VH A32D (antibody, name in Kabat numbering, V domains shown)
# VH: B1 VH with A26G, A32D
# VL: B1 VL
# B43: H183/L072 VH A56K (antibody, name in Kabat numbering, V domains shown)
# VH: B1 VH with A26G, A59K
# VL: B1 VL
# B44: H183/L072 VH A32F (antibody, name in Kabat numbering, V domains shown)
# VH: B1 VH with A26G, A32F
# VL: B1 VL
# B45: H183/L072 VH A56F (antibody, name in Kabat numbering, V domains shown)
# VH: B1 VH with A26G, A59F
# VL: B1 VL
# Molecular target: T1, Human CD3eg linker
# Test: Biacore SPR, vs template H183/L072
row,fold change of affinity [fold],Binder
1,0.5,B1
2,0.6,B2
3,1.1,B3
4,0.7,B4
5,1.2,B5
6,1.1,B6
7,0.7,B7
8,1.1,B8
9,1,B9
10,0.4,B10
11,0.4,B11
12,0.9,B12
13,0.5,B13
14,1.1,B14
15,0,B15
16,0.5,B16
17,1,B17
18,0,B18
19,1,B19
20,0.5,B20
21,0.7,B21
22,1,B22
23,0.3,B23

row,fold change of affinity [fold],Binder
1,0,B24
2,0.1,B25
3,0.6,B26
4,0,B27
5,1,B28
6,0.9,B29
7,0.5,B30
8,0.1,B31
9,1.1,B32
10,0.9,B33
11,0.6,B34
12,1.1,B35
13,0.9,B36
14,0.7,B37
15,1.1,B38
16,0,B39
17,0,B40
18,0.1,B41
19,0,B42
20,1.3,B43
21,0,B44
22,0.6,B45
